From article PMC7612055 (Nature chemistry, 2021) come the findings set out here.

The target of this assay is proteasome αΔ12-subunit (Thermoplasma acidophilum, UniProt P25156 13-233). The assay is described as follows: native gel or EMSA. In general terms: A gel shift assay detects complexes by their altered migration in electrophoresis.
proteasome αΔ12-subunit, sequence (P25156 13-233, stated change not applied): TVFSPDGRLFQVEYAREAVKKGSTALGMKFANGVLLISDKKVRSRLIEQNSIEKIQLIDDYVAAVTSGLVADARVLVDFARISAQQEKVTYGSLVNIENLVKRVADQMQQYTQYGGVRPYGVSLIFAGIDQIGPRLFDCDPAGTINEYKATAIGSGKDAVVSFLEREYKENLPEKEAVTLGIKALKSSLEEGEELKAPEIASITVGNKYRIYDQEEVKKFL

B1: proteasome β-subunit (natural protein)
chain: TTTVGITLKDAVIMATERRVTMENFIMHKNGKKLFQIDTYTGMTIAGLVGDAQVLVRYMKAELELYRLQRRVNMPIEAVATLLSNMLNQVKYMPYMVQLLVGGIDTAPHVFSIDAAGGSVEDIYASTGSGSPFVYGVLESQYSEKMTVDEGVDLVIRAISAAKQRDSASGGMIDVAVITRKDGYVQLPTDQIESRIRKLGLIL
Turning to B1, the binding result is listed as “binds”.
